How the values were obtained:
[1] = pNA assay dose/response curves with and without various inhibitors; format: biochemical; conditions: proteases included for comparative purposes
Description: (§1) pNA substrate: Suc-AAPF-pNA (Bachem L-1400) or Boc-VLGR-pNA (Bachem L-1205). Temperature: 25° C.
(§2) 20 ul (microliters) protease (diluted in 0.01% Triton X-100) was placed in a well of a micro titer plate. The assay was started by adding 200 ul pNA substrate (50 mg dissolved in 1.0 ml DMSO and further diluted 100× with assay buffer). The increase in OD405 was monitored as a measure of the protease activity.
Dose/response relationships (OD405/min versus (mg enzyme)/l) were determined using the pNA assay for a number of proteases, with and without the various inhibitors. The dose-response curves were linear over a satisfactory broad range of enzyme concentrations. Varying degrees of inhibition were observed: Some proteases included for comparative purposes, viz. porcine trypsin and the SAVINASE™ protease (a subtilisin protease derived from Bacillus clausii, commercially available from Novozymes A/S, Krogshoejvej 36, DK-2880 Bagsvaerd, Denmark) were not inhibited, while other proteases were. […] It was therefore concluded that the pNA assay was indeed suitable for inhibition measurements.
Cu^2+, however, inhibited all of the proteases tested (to a varying extent, as it appears from Table 1 below).

[2] = pNA assay: protease activity with 1 mM Cu2+ relative to control without Cu2+; format: biochemical; conditions: enzyme 1 mg/l, Suc-AAPF-pNA, pH 7, 25° C.
Description: (§3) Protease activity is measured using the substrate Suc-AAPF-pNA, in assay buffer at pH 7.0 and 25° C. For more details, please refer to the pNA assay described in Example 4, which also describes in detail the determination according to i) and ii).
Feature ii) is determined as the enzyme activity in the presence of 1 mM Cu^2+, relative to the activity of the same enzyme under the same conditions, except for the presence of Cu^2+. For the protease of the invention, this relative activity is at least 0.66 (=66%). For the purposes of feature ii), enzyme (protease) activity is measured as described above.
as §1, §2
First, the effect of various Cu^2+ concentrations was tested with an enzyme dosage of 1 mg/l. At least in the range of 0 to 1 mM Cu^2+ there seemed to be a linear relationship between inhibition and concentration of Cu^2+, the inhibition manifesting itself as a decrease in the enzyme activity with increasing concentrations of Cu^2+ (the enzyme activity being measured as average OD405 increase/time from the linear part of dose/response curves).

[3] = Stability assay: residual activity after incubation with 1 mM inhibitor, measured by pNA assay; format: physicochemical; design: key to Residual Enzyme Activity: fraction of activity at 0 h incubation (0.80 = 80%); conditions: 1 mM Cu2+, 25° C., pH 7, 0.1% K-sorbate, relative to 0 hours
Description: Feature i) is determined as residual (=rest, or remaining) enzyme activity after having incubated the enzyme for 164 hours, at pH 7 and 25° C., in assay buffer supplemented with 0.1% K-Sorbate (for preservation purposes), and in the presence of 1 mM Cu^2+. The residual activity is measured relative to the activity after 0 hours of incubation. For the protease of the invention, the residual activity is at least 0.80 (=80%).
as §3, §2
The protease was diluted to approx. 1 mg/ml (see below) in assay buffer with 0.1% (w/v) K-sorbate (potassium salt of sorbic acid) and 1 mM inhibitor. The mixture was incubated at 25° C.). At intervals, a sample was withdrawn from the incubation (after thorough mixing) and frozen. After dilution in assay buffer, residual activity was measured using the pNA assay. For the 1 mM inhibitor additions, the incubation was diluted in assay buffer with 5 mM EDTA in order to see a pure stability effect.
Protease concentrations were estimated from the theoretical molar extinction coefficients, E280 (1 M), which can be calculated from the amino acid composition using the formula: E280 (1 M)=5690*NTrp+1280*NTyr+120*NCys, where NTrp, NTyr, and NCys are the number of Trp, Tyr, and Cys amino acid residues in the protease (Gill, S. C., von Hippel, P. H., Analytical Biochemistry 182: 319-326 (1989)) and the molecular weight, Mw, of the protease calculated from the amino acid sequence. From an A280 measurement of a pure protease sample (more than 95% pure according to Example 2), the protease concentration was calculated as: Conc (mg/ml)=(A280*MW)/E280 (1 M)).
The stability of the various proteases in the presence of the various inhibitors in a concentration of 1 mM was tested as described above. The only inhibitor that had some effect on the stability of some of the proteases was Cu^2+. However, the effect of this inhibitor was not the same on all the proteases: See the results in Table 2 below showing that Protease 18 and the Brachysporiella proteases are indeed stable in the presence of 1 mM Cu^2+, while the other proteases are not.

Molecule | Inhibition by the various inhibitors (dose/response, pNA assay) [1] | Enzyme Activity, +1 mM Cu^2+ ([2]; 1 mM Cu2+) [mOD405/min] | Relative Activity ([2]; activity with 1 mM Cu2+ relative to control without Cu2+) | Enzyme Activity, Control (no Cu^2+) ([2]; no Cu2+) [mOD405/min] | Residual Enzyme Activity ([3]; incubation time 0 hours) | Residual Enzyme Activity ([3]; incubation time 3.1 hours) | Residual Enzyme Activity ([3]; incubation time 18.6 hours) | Residual Enzyme Activity ([3]; incubation time 44.0 hours) | Residual Enzyme Activity ([3]; incubation time 116.0 hours) | Residual Enzyme Activity ([3]; incubation time 164.0 hours) | Residual Enzyme Activity ([3]; incubation time 188.6 hours)
porcine trypsin: protease included for comparative purposes (protein, UniProt P00761 9-231, looked up) Trypsin: IVGGYTCAANSIPYQVSLNSGSHFCGGSLINSQWVVSAAHCYKSRIQVRLGEHNIDVLEGNEQFINAAKIITHPNFNGNTLDNDIMLIKLSSPATLNSRVATVSLPRSCAAAGTECLISGWGNTKSSGSSYPSLLQCLKAPVLSDSSCKSSYPGQITGNMICVGFLEGGKDSCQGDSGGPVVCNGQLQGIVSWGYGCAQKNKPGVYTKVCNYVNWIQQTIAAN | not inhibited | – | – | – | – | – | – | – | – | – | –
Metarhizium protease: known protease derived from Metarhizium anisopliae, amino acids 1-188 of SEQ ID NO: 4 (protein, listed as Metarhizium anisopliae) MELTKFLALLAVILPVAYGAPTQAASLHPQILEAMKRDLGLNAEQATVRVAREIHATDVIEQLRSSVAFAGAWIDADVLYIGITDQALADEVTAAGATPIVMTNSLSKLEKAKEDLDKIFIGRANTLETSSDTSSGIASYFVDVAANKLVIEALADSHGHAEQLAAQVGLTSEFEVRTVETMPTTMAT | – | 72.4 | 0.612 | 118.2 | 1.000 | 0.979 | 0.939 | 0.891 | 0.760 | 0.651 | 0.627

Source: patent US7906310B2, “Proteases” (Novozymes A/S, priority 2003, dated 2011)
